experiment: yeast display, Sf9 membrane polyspecificity reagent, FACS + sequencing; frameworks hold sequencing errors
Method in brief: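 In a synthetic yeast display library (Saccharomyces cerevisiae BJ5465), nanobody expression was induced with galactose for 36–48 hours. FACS gates were set low and high (top ~1%) using anti-HA fluorescence for expression and streptavidin fluorescence for binding of the Sf9 membrane reagent. Each polyreactivity label is drawn from the gate of origin.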

Sequence	polyreactivity (PSR sort gate)
QVQLVESGGGLVQAGGSLRLSCAASGSIFTIYAMGWYRQAPGKERELVAAIRESSGSTYYADSVKGRFTISRDYAKNTVYFQINSLKPEDTAVYYCAADINYSSYDYWGQGTQVTVSS	high polyreactivity
QVQLVESGGGLVQAGGSLRLSCAASGSIFTIYAMGWYRQAPGKERELVATITGIADSTYYADSVKGRFTISRDNAKNTVYLQMNSLKPEDTAVYYCAADKYVAEYDYWGQGTQVTVSS	low polyreactivity
QVQLVESGGGLVQAGGSLRLSCAASGSIFTKYAMGWYRQAPGKERELVAAINARGGSTYYADSVKGRFTISRDNAKNTVYLQMNSLKPEDTAVYYCAARYGVGRADYYWGHGTQVTVSS	high polyreactivity
QVQLVESGGGLVQAGGSLRLSCAASGSIFTKYAMGWYRQAPGKERELVAAISASGGSTYYADSVKGRFTISRDNAKNTVYLQMNSLKPEDTAVYYCAARYWVREDYWGQGTQVTVSS	high polyreactivity
QVQLVESGGGLVQAGGSLRLSCAASGSIFTKYAMGWYRQAPGKERELVAAISSSGGSTYYADSVKGRFTISRDNAKNTVYLQMNSLKPEDTAVYYCAAEAVYYRSWRYYYWGQGTQVTVSS	high polyreactivity
QVQLVESGGGLVQAGGSLRLSCAASGSIFTLNTMGWYIQAPGKERELVAVISRSGDRTYYADSVKGRFTISRDNAKNTVYLQMNSLKPEDTAVYYCAADTTKRVRGYDYWGQGTQVTVSS	high polyreactivity
QVQLVESGGGLVQAGGSLRLSCAASGSIFTLYAMGWYRQAPGKEREFVAGISFSTGRTYYADSVKGRFTISRDNAKNTVYLQMNSLKPEDTAVYYCAAYVSHYWYGVYRDGYWGQGTQVTVSS	low polyreactivity
QVQLVESGGGLVQAGGSLRLSCAASGSIFTLYAMGWYRQAPGKERELVAAINRSGGSTYYADSVKGRFTISRDNAKNTVYLQMNSVKPEATAVYYCNARQYTGRRYDYWGQGTQVTVSS	high polyreactivity
QVQLVESGGGLVQAGGSLRLSCAASGSIFTLYAMGWYRQAPGKERELVAAITRSGGSTYYADSVKGRFTISRDNAKNTVYLQMNSLKPEDTAVYYCNKATAYGLDYWGQATQVTVSS	high polyreactivity
QVQLVESGGGLVQAGGSLRLSCAASGSIFTLYAMGWYRQAPGKERELVATINWSGGSTSYADSVKGRFTISRDNAKNTVYLQMNSLKPEDTAVYYCAADYYFWHGTGYDYWGQGTQVTVSS	low polyreactivity
QVQLVESGGGLVQAGGSLRLSCAASGSIFTPNAMGGYRQAPGKERELVAAISSSSDRTYYADSVKGRFTISRDNAKNTVYLQMNRLKPEDTAVYYCAAYAQKRYYWGQGTQVTVSS	high polyreactivity
QVQLVESGGGLVQAGGSLRLSCAASGSIFTPNAMGWYRQAPGKERELVAAISWSGARTYYADSVKGRFTISRDNAKNTVYLQMNSLKPEDTAVYYSYAFGSWGQGTQVTVSS	high polyreactivity
QVQLVESGGGLVQAGGSLRLSCAASGSIFTPYAMGWYRQAPGKERELGATISWSGGRTYYADSVKGRFTISRDNAKNTVYLQMNSLKPEDSAVYYCAARGYSSEYDYWGQGTQVTVSS	high polyreactivity
QVQLVESGGGLVQAGGSLRLSCAASGSIFTPYAMGWYRQAPGKERELVAAISWRGGNTYYADSVKGRFTISRDNAKNTFYLQMNSLKPEETAVYYCAAEQYSVYETGSYDYWGQGTQVTVSS	low polyreactivity
QVQLVESGGGLVQAGGSLRLSCAASGSIFTPYAMGWYRQAPGKEREVVATITWTGGSTYYADSVKGRFTISRDNAINTVYLQMNSLKPEDTAVYYCAADTYRSGRAYYYWGQGTQVTVSS	low polyreactivity
QVQLVESGGGLVQAGGSLRLSCAASGSIFTQYAMGWYRQAPGKERELVAAITSSGGSTHYADSVKGRFTISRDNAKNTVYLQMNSLKPEDTAVYYCAVPSFVYATFPYGYWGQGTQVTVSS	low polyreactivity
QVQLVESGGGLVQAGGSLRLSCAASGSIFTQYTMGWYRQAPGKERELVAAISRSGGRTYYADSVKGRFTISRDIAKNTVYLQMNSLKPEDTAVYYCAAEYTDKYEYWGQGTQVTVSS	high polyreactivity
QVQLVESGGGLVQAGGSLRLSCAASGSIFTRNAMGWYRQAPGKEREFVAAISSSGVSTYYADSVKGRFTISRDNAKNTVYLQMNSLKPEDTAVYYCAARWGTKSGRYDYWGQGTQVTVSS	high polyreactivity
QVQLVESGGGLVQAGGSLRLSCAASGSIFTRYAMGGYRQAPGKERELVAAITAGGSSPYYADSVKGRFTISRDNAKNTVYLQMNSLKPEDTAVYYCNAVWWHPTDYDYWGQGSQVTVSS	low polyreactivity
QVQLVESGGGLVQAGGSLRLSCAASGSIFTSNAMGWYRQAPGKERELVAAISWSGTSTYYADSVKGRFTISRDNAKNTVYLQMNSLKPEDTAVYYCNADTNYWEDDYWGQGTQVTVSS	low polyreactivity
QVQLVESGGGLVQAGGSLRLSCAASGSIFTSYAMGWYRQAPGKERELVAAIDWSGGTTYYADSVKGRFTISRDNAKNPVYLQMNSLKPEDTAVYNRAADIYKYTVGSYDYWGQGTQVTVSS	low polyreactivity

Sequence	polyreactivity (PSR sort gate)
QVQLVESGGGLVQAGGSLRLSCAASGSIFTTNAMGWYRQAPGKERELVARIDRAGSTYYADSVKGRFTISRDNAKNTVYLQMNSLKPEDTSVYYCAVEAVLSRPYATKFDYWGQGTEVTVSS	low polyreactivity
QVQLVESGGGLVQAGGSLRLSCAASGSIFTTYAMGWYRQAPGKERELVAVISRRGGSTYYADSVKGRFTISRDNAKNTVYLQMNSLKPEDTAVYYCNAAYVWYRIFVRRDYWGQGTQVTVSS	high polyreactivity
QVQLVESGGGLVQAGGSLRLSCAASGSIFTVNAMGWYRQAPGKERELVATISVTGGSTYADSVKGRFTISRENAKNTVYLQMNSLKPEDTAVYYCAADKTVRWDFDYRGQGTQVTVSS	low polyreactivity
QVQLVESGGGLVQAGGSLRLSCAASGSIFTVYAIGWYRQAPGKEREFVADIDSGGTYYADSVKGRFTISRDNAKNTVYLQMNSLKPEDSAVYYCAALAALDYGQLYLADDDYWGQGTQVTVSS	low polyreactivity
QVQLVESGGGLVQAGGSLRLSCAASGSIFTWNVKGWYRQAPGKERELVAAISSGGSTNYADSVKGRFTISRDNAKNTVYLQMNSLKPEDTAVYYCATYFRVWYRSYDYWGQGTQVTVSS	high polyreactivity
QVQLVESGGGLVQAGGSLRLSCAASGSIFTWYAMGWSRQAPGKERELVAAITRGGSTYADSVKGRFTISRDNANYTVYLQMNSLKPADTAVYYCNAVYGVYDFNYWGQGTQVTVSS	low polyreactivity
QVQLVESGGGLVQAGGSLRLSCAASGSIFTWYAMGWYRQAPGKERELVAAISEDGGSTYYADSVKGRFTISRDNAKNTVYLQMNSLKPEDTAVYYCATPVASVTGYDYWGQGTQVTVSS	low polyreactivity
QVQLVESGGGLVQAGGSLRLSCAASGSIFTWYAMGWYRQAPGKERELVAAITTGGDTYYADSVKGRFTISRDNAKNTVYLQMNSLKPEDTAVYYCAATPTYWYLCSPYDYWGQGTQVTVSS	low polyreactivity
QVQLVESGGGLVQAGGSLRLSCAASGSIFTYNAMGWYRQAPGKERELVAAISRGGGRTYYADSVKGRFTISRDNAKNTVYLQMNSLKPEDTAVYYCAADIYVRQRYPYYYWGQGTQVTVSS	high polyreactivity
QVQLVESGGGLVQAGGSLRLSCAASGSIFTYNAMGWYRQAPGKERELVAAITSSSGSSTYADSVKGRFTISRDNAKNTVYLQMNSLKPEDTAVYYCAAPILSFPSPYVQYDYWGQGTQVTVSS	low polyreactivity
QVQLVESGGGLVQAGGSLRLSCAASGSIFTYNTMGWYRQAPGKERELVAAISSGGRTYYADSVKGRFTISRDNAKNTVYLQMNSLKPEDTAVYYCAARYYFWGQGTQVTVSS	high polyreactivity
QVQLVESGGGLVQAGGSLRLSCAASGSIFTYYAMGWYRQAPGKEREFVAAISRRGGSTYYADSVKGRFTISRDNAKNTVYLQMNSLKPEDTAVYYCAADRWTRTLVKVIGRYYYWGQGTQVTVSS	high polyreactivity
QVQLVESGGGLVQAGGSLRLSCAASGSIFTYYAMGWYRQAPGKERELVAAISLDGGSTYYADSVKGRFTISRDNAKNTVYLQMNSLKPEDTAVYYCAADYRFFPYTYLYDYWGQGTQVTVSS	low polyreactivity
QVQLVESGGGLVQAGGSLRLSCAASGSIFTYYAMGWYRQAPGKERELVAAISRRGTRTYYADSVKGRFTISRDNAKNTVYLQMNSLKPEDTAVYYCAAEYTETGTAKMEYWGQGTQVTVSS	high polyreactivity
QVQLVESGGGLVQAGGSLRLSCAASGSIFTYYAMGWYRQAPGKERELVAAITSTGGSTYYADSVKGRFTISRDNAKNTVYLQMNSQKPEDTAVYYCATDYGYYDYWGQGTQVTVSS	low polyreactivity
QVQLVESGGGLVQAGGSLRLSCAASGSIFTYYVMGWYRQAPGKERELVAAITISGGSTYYADSVKGRFTISRDNAKNTVYLQMNRLNPEDTAVYYCAAEEVYYEADGFLYSYDYWGKGTQVTVSS	high polyreactivity
QVQLVESGGGLVQAGGSLRLSCAASGSIFVANAMGWYRQAPGKERELVAVISSGGGSTSYADSVKGRFTISRDNAKNTVYLQMSSLKPEDTAVYDCTRRRYDAGSTMGYWGQGTQVTVSS	low polyreactivity
QVQLVESGGGLVQAGGSLRLSCAASGSIFVAYAMGWDRQAPGKERELVAAISSSGGTTYYAYSVKGRFTISRDNAKNTVYLQMNSLKPEDTAVYYCAARDYKYYYWGQGTQVTVSS	high polyreactivity
QVQLVESGGGLVQAGGSLRLSCAASGSIFVAYAMGWYRQAPGKERELVAAITAVGSTYYADSVKGRFTISRDNAKNTVYLQMNSLKAEDTAVYYCAKRQLRPTYRYGYWGQGNQVTVSS	low polyreactivity
QVQLVESGGGLVQAGGSLRLSCAASGSIFVDNAMGWYRQAPGKEREMVAAISRRGGSTYYADSVKGRFTISRDNAKNTVYLQMNSLKPEDTAVYYCNKKNIQFYQGASDYWGQGTQVTVSS	high polyreactivity

— the nanobody polyreactivity screen of Harvey et al. (2022)
